Reference: article PMC8102066, “Differences in interactions between transmembrane domains tune the activation of metabotropic glutamate receptors” (eLife, 2021)

How the values were obtained:
HA-SNAP-mGluR2-TMD (rat) = assay: single-molecule pulldown (SiMPull) with photobleaching step counting; HEK 293T cells surface-labelled with BG-LD555, lysed in 1.2% IGEPAL, diluted in 0.1% IGEPAL buffer; HA-SNAP constructs captured by biotinylated anti-HA antibody on NeutrAvidin/PEG slides; TIRF; percent dimerization = two-step bleaching min-max normalised (5% background, 55% for full-length mGluR2); in some experiments saturating ligands (TASP, MNI 137, glutamate, LY34) kept from cell dissociation on
SNAP-mGluR2-TMD-I779W = assay: SiMPull; settings: SNAP-tagged constructs labeled with LD555; 6 movies; parent: est. 80; read off a plot
HA-SNAP-mGluR3-TMD (rat) = assay: single-molecule pulldown (SiMPull) with photobleaching step counting; HEK 293T cells surface-labelled with BG-LD555, lysed in 1.2% IGEPAL, diluted in 0.1% IGEPAL buffer; HA-SNAP constructs captured by biotinylated anti-HA antibody on NeutrAvidin/PEG slides; TIRF; percent dimerization = two-step bleaching min-max normalised (5% background, 55% for full-length mGluR2); in some experiments saturating ligands (TASP, MNI 137, glutamate, LY34) kept from cell dissociation on
SNAP-mGluR3-TMD-S686A = assay: SiMPull; settings: SNAP-tagged constructs labeled with LD555; 6 movies; parent: est. 46; read off a plot
[1] = target: SNAP-mGluR2-TMD-P778A-I779A; assay: SiMPull; settings: SNAP-tagged constructs labeled with LD555; 6 movies; parent: est. 80; read off a plot
SNAP-mGluR3-TMD-3xTM4_W = assay: SiMPull; settings: SNAP-tagged constructs labeled with LD555; 6 movies; parent: est. 46; read off a plot
SNAP-mGluR3-TMD-F690A = assay: SiMPull; settings: SNAP-tagged constructs labeled with LD555; 6 movies; parent: est. 46; read off a plot
SNAP-mGluR2-TMD-P778A = assay: SiMPull; settings: SNAP-tagged constructs labeled with LD555; 6 movies; parent: est. 80; read off a plot
SNAP-mGluR3-TMD-G694A = assay: SiMPull; settings: SNAP-tagged constructs labeled with LD555; 6 movies; parent: est. 46; read off a plot
SNAP-mGluR2-TMD-3xTM4_W = assay: SiMPull; settings: SNAP-tagged constructs labeled with LD555; 9 movies; parent: est. 83; read off a plot
SNAP-mGluR3-TMD-I788A = assay: SiMPull; settings: SNAP-tagged constructs labeled with LD555; 6 movies; parent: est. 50; read off a plot
SNAP-mGluR2-TMD-I779A [2] = assay: SiMPull; settings: SNAP-tagged constructs labeled with LD555; 6 movies; parent: est. 80; read off a plot
SNAP-mGluR2-TMD-I779A [3] = assay: SiMPull; settings: SNAP-tagged constructs labeled with LD555; 6 movies; parent: est. 80; read off a plot; remark: listed apart in the source

HA-SNAP-mGluR2-TMD (domain or fragment), sequence (P31421 19-872): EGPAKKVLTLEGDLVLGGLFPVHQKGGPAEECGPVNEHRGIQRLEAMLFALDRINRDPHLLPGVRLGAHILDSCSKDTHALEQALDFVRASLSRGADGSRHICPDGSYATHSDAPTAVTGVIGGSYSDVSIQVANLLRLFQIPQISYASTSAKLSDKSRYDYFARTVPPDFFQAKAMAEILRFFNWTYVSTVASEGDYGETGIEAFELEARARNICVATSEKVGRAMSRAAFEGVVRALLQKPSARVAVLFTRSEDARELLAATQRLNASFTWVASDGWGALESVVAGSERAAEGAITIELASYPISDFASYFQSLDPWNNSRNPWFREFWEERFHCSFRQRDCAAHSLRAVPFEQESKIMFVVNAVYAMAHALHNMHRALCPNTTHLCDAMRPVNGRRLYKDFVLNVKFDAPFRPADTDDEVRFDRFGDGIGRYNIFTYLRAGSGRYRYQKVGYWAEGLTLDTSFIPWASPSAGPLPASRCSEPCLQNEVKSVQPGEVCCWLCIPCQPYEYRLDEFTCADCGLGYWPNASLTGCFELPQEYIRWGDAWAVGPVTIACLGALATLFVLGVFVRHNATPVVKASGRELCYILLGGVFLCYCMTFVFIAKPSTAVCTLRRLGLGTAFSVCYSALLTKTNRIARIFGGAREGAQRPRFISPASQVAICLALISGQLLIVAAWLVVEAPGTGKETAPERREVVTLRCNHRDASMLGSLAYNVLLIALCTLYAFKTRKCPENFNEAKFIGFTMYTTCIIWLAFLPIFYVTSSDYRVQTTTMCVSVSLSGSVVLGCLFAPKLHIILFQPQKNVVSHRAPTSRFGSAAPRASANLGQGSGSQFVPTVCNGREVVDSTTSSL
HA-SNAP-mGluR3-TMD (domain or fragment), sequence (P31422 23-879): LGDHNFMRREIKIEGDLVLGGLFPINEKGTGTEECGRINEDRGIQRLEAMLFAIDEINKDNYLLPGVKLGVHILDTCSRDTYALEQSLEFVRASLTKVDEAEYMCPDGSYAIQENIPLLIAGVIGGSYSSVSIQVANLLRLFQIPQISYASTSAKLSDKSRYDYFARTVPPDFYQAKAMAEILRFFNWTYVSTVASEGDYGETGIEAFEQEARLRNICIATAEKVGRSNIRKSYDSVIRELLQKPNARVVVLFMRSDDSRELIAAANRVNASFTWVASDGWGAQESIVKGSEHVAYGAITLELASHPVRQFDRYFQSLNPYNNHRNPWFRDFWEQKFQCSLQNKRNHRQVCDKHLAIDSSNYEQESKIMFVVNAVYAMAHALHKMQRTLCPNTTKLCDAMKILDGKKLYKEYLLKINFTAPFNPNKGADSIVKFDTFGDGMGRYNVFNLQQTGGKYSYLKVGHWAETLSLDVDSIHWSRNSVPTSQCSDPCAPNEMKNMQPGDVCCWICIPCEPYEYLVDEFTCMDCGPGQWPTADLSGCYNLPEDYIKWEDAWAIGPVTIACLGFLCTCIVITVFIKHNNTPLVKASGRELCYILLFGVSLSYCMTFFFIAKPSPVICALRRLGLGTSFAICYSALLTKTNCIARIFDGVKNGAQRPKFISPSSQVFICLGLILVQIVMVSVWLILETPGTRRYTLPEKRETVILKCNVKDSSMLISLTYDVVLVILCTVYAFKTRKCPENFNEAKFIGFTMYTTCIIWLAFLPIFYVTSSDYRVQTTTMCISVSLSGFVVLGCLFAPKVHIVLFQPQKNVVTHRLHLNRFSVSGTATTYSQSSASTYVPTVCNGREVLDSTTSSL

HA-SNAP-mGluR2-TMD (domain or fragment)
percent of spots bleaching in >3 steps (HA-SNAP-mGluR2-TMD (rat)): 4.5% | percent of spots bleaching in one step (HA-SNAP-mGluR2-TMD (rat)): 54.1% | percent of spots bleaching in two steps (HA-SNAP-mGluR2-TMD (rat)): 41.4%

HA-SNAP-mGluR2-TMD I779W
other: percent dimerization (SNAP-mGluR2-TMD-I779W): 61%

HA-SNAP-mGluR3-TMD (domain or fragment)
percent of spots bleaching in >3 steps (HA-SNAP-mGluR3-TMD (rat)): 2.9% | percent of spots bleaching in one step (HA-SNAP-mGluR3-TMD (rat)): 69.1% | percent of spots bleaching in two steps (HA-SNAP-mGluR3-TMD (rat)): 27.9%

HA-SNAP-mGluR3-TMD S686A
other: percent dimerization (SNAP-mGluR3-TMD-S686A): 72%

HA-SNAP-mGluR2-TMD P778A; I779A
other: percent dimerization [1]: 57%

HA-SNAP-mGluR3-TMD S686W; F690W; G684W
other: percent dimerization (SNAP-mGluR3-TMD-3xTM4_W): 45%

HA-SNAP-mGluR3-TMD F690A
other: percent dimerization (SNAP-mGluR3-TMD-F690A): 64%

HA-SNAP-mGluR2-TMD P778A
other: percent dimerization (SNAP-mGluR2-TMD-P778A): 64%

HA-SNAP-mGluR3-TMD G694A
other: percent dimerization (SNAP-mGluR3-TMD-G694A): 62%

HA-SNAP-mGluR2-TMD A677W; A681W; A685W
other: percent dimerization (SNAP-mGluR2-TMD-3xTM4_W): 39%

HA-SNAP-mGluR3-TMD I788A
other: percent dimerization (SNAP-mGluR3-TMD-I788A): 38%

HA-SNAP-mGluR2-TMD I779A
other: percent dimerization (SNAP-mGluR2-TMD-I779A [2]): 57% | other: percent dimerization (SNAP-mGluR2-TMD-I779A [3]): 57%
